Two molecules from US20250388666A1 (BRIGHAM AND WOMEN S HOSPITAL, published 2025) can be followed below.

The Kd is the equilibrium constant for the complex coming apart.

In assay [1] the target is T1, CEACAM5 (Sino Biological) (human, UniProt P06731 35-685).
T1 construct: also called hCEACAM5
T1 sequence (looked up): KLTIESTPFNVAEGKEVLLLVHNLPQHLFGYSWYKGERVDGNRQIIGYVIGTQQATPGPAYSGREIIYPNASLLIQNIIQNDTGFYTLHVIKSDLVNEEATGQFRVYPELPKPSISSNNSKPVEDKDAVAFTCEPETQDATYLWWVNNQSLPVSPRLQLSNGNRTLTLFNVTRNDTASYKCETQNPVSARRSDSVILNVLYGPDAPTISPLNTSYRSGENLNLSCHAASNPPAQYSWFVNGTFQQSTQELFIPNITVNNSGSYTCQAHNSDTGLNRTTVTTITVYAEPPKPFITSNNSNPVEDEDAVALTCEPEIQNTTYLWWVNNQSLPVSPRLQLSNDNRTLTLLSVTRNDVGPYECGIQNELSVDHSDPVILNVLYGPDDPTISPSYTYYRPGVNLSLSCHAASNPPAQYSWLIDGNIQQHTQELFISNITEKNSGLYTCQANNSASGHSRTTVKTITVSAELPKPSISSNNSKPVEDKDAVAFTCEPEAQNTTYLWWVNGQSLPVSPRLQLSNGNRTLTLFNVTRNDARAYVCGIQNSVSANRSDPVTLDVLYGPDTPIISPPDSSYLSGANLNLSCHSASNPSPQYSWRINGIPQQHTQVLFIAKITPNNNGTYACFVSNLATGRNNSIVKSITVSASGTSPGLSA
Description: binding ELISA on plate-coated CEACAM (0.5 µg/mL); antibody at 1.67, 0.062 and 0.0069 µg/mL; signal as % of parent IgG on CEACAM1 at 1.67 µg/mL on the same plate. In general terms: ELISA stands for enzyme-linked immunosorbent assay.

Assay [2] addresses T2, CEACAM1 (Sino Biological) (human, UniProt P13688 35-428, limits assumed).
T2 construct: may be the same as CEACAM1-HIS; also called hCEACAM1; biotinylated soluble CEACAM1
T2 sequence: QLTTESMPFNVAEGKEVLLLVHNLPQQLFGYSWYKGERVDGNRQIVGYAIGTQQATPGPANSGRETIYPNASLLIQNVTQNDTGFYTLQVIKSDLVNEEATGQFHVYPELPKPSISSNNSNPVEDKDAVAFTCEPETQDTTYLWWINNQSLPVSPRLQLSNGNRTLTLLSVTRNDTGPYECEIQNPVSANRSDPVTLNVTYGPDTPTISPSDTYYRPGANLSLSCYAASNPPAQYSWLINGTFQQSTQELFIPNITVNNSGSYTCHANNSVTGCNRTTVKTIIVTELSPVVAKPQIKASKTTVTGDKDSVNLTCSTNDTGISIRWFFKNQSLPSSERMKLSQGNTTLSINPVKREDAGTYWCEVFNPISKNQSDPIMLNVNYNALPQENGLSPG
Description: SPR single-cycle. An outline of the steps: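 Humanized affinity-matured IgGs from crude supernatants captured on Protein A to ~100 RU, with CEACAM1 analyte injected at 25–100 nM (three-point, two-fold) in HBS-P+ without regeneration. 200 s association per injection, 300 s single dissociation; reference-channel and blank subtracted.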

The target of assay [3] is T3, CEACAM1-HIS (Sino Biologics Inc.) (Homo sapiens (Human), UniProt P13688 35-428).
T3 construct: bought; not shown: His tag
T3 sequence: T2 sequence
Description: SPR single-cycle, IgG on Protein A. Put shortly: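 Single-cycle kinetics at 25° C in HBS-P+ (pH 7.4), antibodies from HEK EBNA supernatants at 1 μg/mL captured on Protein A (~100 RU). CEACAM1 injected at 3.125–50 nM (2-fold, 5 points), 150 s association, 150 s dissociation. Reference-channel and blank-run subtraction applied.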

Several values for one entry are separate records, joined by “and”; a condition that tells them apart may be missing. Equal values may be shown once.

B1: VH2 N56Q/Vκ4 S27(f)A IgG (antibody, V domains shown)
VH: EVQLLESGGGLVQPGGSLRLSCAASGFSFSDYYLYWVRQAPGKGLEWVATISVGGGQTSYADSVKGRFTISRDNSKNTLYLQMNSLRAEDTAMYYCTRGLYYGPAWFAYWGQGTLVTVSS
VL: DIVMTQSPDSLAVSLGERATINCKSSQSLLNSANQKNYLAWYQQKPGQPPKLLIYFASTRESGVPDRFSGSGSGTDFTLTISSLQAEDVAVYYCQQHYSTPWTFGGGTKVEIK
notes: IgG4 S241P, kappa; also called Parent; Parent IgG
Take B1: the binding result in assay [1] is listed as “no binding (tested: 1.67 µg/mL)”. Besides, in assay [2], the Kd came to 551 nM and the “fold better than Parent (KD)” value was 1 fold.

B2: chimeric parental antibody VH0/Vκ0 (antibody, IgG4, V domains shown)
VH: EVQLVESGGGFVKPGGSLKLSCAASGFSFSDYYLYWVRQTPEKRLEWVATISVGGGNTSYPDSVKGRFTISRDNAKNNLYLQMSSLKSEDTAMYYCTRGLYYGPAWFAYWGQGTLVTVSA
VL: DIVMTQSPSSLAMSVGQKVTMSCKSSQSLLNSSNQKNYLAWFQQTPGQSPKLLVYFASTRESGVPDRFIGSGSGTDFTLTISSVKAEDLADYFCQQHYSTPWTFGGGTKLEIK
notes: IgG4 (S241P), kappa; also called Chimera; chimeric antibody
Take B2: the Kd in assay [3] is 47.6 nM and 43.2 nM.
